In the Human Domainome abundance scans (Beltran et al. 2025):
± gives the uncertainty stated by the source.

B1: POU domain, class 6, transcription factor 2, residues 609 to 663; numbered along this chain, P78424 (parent)
chain: KRRTSFTPQALEILNAHFEKNTHPSGQEMTEIAEKLNYDREVVRVWFCNKRQALK

Variants of: B1
Test: abundance fitness (aPCA) (normalised: wild type 0, dead -1); higher = more abundant; growth selection in yeast, the domain comes from the species named
Conditions: Homo sapiens

KRRTSFTPQMLEILNAHFEKNTHPSGQEMTEIAEKLNYDREVVRVWFCNKRQALK [A10M] and KRRTSFTPQALEILNACFEKNTHPSGQEMTEIAEKLNYDREVVRVWFCNKRQALK [H17C] are within error of each other in abundance fitness: -0.206 ± 0.2 for the first, -0.063 ± 0.072 for the second.

First: KRRTSFTPQALEILNAKFEKNTHPSGQEMTEIAEKLNYDREVVRVWFCNKRQALK [H17K]
Second: KRRRSFTPQALEILNAHFEKNTHPSGQEMTEIAEKLNYDREVVRVWFCNKRQALK [T4R]
The abundance fitness of the first is higher: 0.04 ± 0.1 for the first, -0.204 ± 0.071 for the second.

KRRTSNTPQALEILNAHFEKNTHPSGQEMTEIAEKLNYDREVVRVWFCNKRQALK [F6N] and KRRTSTTPQALEILNAHFEKNTHPSGQEMTEIAEKLNYDREVVRVWFCNKRQALK [F6T] are within error of each other in abundance fitness: -0.267 ± 0.19 for the first, -0.134 ± 0.11 for the second.

KRRTSWTPQALEILNAHFEKNTHPSGQEMTEIAEKLNYDREVVRVWFCNKRQALK [F6W] and KRRTSFTPQALEILNGHFEKNTHPSGQEMTEIAEKLNYDREVVRVWFCNKRQALK [A16G] are within error of each other in abundance fitness: -0.025 ± 0.098 for the first, -0.049 ± 0.05 for the second.

KRRTSFTPQALEILNHHFEKNTHPSGQEMTEIAEKLNYDREVVRVWFCNKRQALK [A16H] and KRRTSFTPQALEILNRHFEKNTHPSGQEMTEIAEKLNYDREVVRVWFCNKRQALK [A16R] are within error of each other in abundance fitness: 0.044 ± 0.17 for the first, -0.084 ± 0.052 for the second.

KRRTSFTPQALEILNAHFEKNTHPSGAEMTEIAEKLNYDREVVRVWFCNKRQALK [Q27A] and KRRTSFTPQALEILNAHFEKNTHPSGYEMTEIAEKLNYDREVVRVWFCNKRQALK [Q27Y] are within error of each other in abundance fitness: -0.063 ± 0.097 for the first, -0.315 ± 0.2 for the second.

KRRTSFTPQALEILNAHFEKNTHPSGTEMTEIAEKLNYDREVVRVWFCNKRQALK [Q27T] and KRRTSFTPQALEILNAHFEKNTHPSGQEMTEIAEKLNYDREMVRVWFCNKRQALK [V42M] are within error of each other in abundance fitness: 0.022 ± 0.11 for the first, 0.034 ± 0.094 for the second.

KRRTSFTPQALEILNAHFEKNTHPSGQEMTEIAEKCNYDREVVRVWFCNKRQALK [L36C] and KRRTSFTPMALEILNAHFEKNTHPSGQEMTEIAEKLNYDREVVRVWFCNKRQALK [Q9M] are within error of each other in abundance fitness: -0.073 ± 0.27 for the first, -0.041 ± 0.22 for the second.

Compared with KRRTSFTPGALEILNAHFEKNTHPSGQEMTEIAEKLNYDREVVRVWFCNKRQALK [Q9G], KRRTSFTPQALEILNAHFEKNTHPSGQEMTEIAEKLNYDREVVRVWFCNKFQALK [R51F] is lower in abundance fitness: -0.06 ± 0.085 for the first, -0.331 ± 0.14 for the second.

KRRTSFTPQALEILNAHFEKNTHPSGQEMTEIAEKLNYDREVVRVWFCNKWQALK [R51W] and KRRTSFTPQALEILNAHFEKNTHPSGQEMTEIAEKLNYDREVVRVWFCNKCQALK [R51C] are within error of each other in abundance fitness: -0.295 ± 0.12 for the first, -0.316 ± 0.15 for the second.

KRRTSFTPQALEILNAHFEKNTHPSGQEMTEIAEKLNYDREVVRVWFCNKNQALK [R51N] and KRRTSFTPQALEILNAHFEKNTHPSGQEMTEIAEKLNYDREVVRDWFCNKRQALK [V45D] are within error of each other in abundance fitness: -0.074 ± 0.19 for the first, 0.094 ± 0.23 for the second.

KRRTSFTPQALEHLNAHFEKNTHPSGQEMTEIAEKLNYDREVVRVWFCNKRQALK [I13H] and KRRTSFTPQALEILNAHFEKNTHPSGQEMTEIAEKLNYDREVVRVWFVNKRQALK [C48V] are within error of each other in abundance fitness: -0.172 ± 0.27 for the first, 0.124 ± 0.36 for the second.

KRRTSFTPQALEILNAHFEKNTHPSGQEMTEIQEKLNYDREVVRVWFCNKRQALK [A33Q] and KRRTSFTPQALEILNAHFEKNTHPSGQEMTEIGEKLNYDREVVRVWFCNKRQALK [A33G] are within error of each other in abundance fitness: -0.412 ± 0.28 for the first, -0.248 ± 0.12 for the second.

Going from KRRTSFTPQALEILNAHGEKNTHPSGQEMTEIAEKLNYDREVVRVWFCNKRQALK [F18G] to KRRTSFTPQALEILNAHFEKETHPSGQEMTEIAEKLNYDREVVRVWFCNKRQALK [N21E], the abundance fitness rises from -0.848 ± 0.063 to -0.016 ± 0.11.

KRRTSFTPQALEILNAHFEKNTHPSGQEMTEIAENLNYDREVVRVWFCNKRQALK [K35N] and KRRTSFTPQALEILNAHFEKNTHPSGQEMTEIAERLNYDREVVRVWFCNKRQALK [K35R] are within error of each other in abundance fitness: -0.255 ± 0.21 for the first, -0.053 ± 0.093 for the second.

KRRTSFTPQALEILNAHFEKNTHPSGQEMTEIAESLNYDREVVRVWFCNKRQALK [K35S] and KRRTSFTPQALEILNAHFEKNTHPSGQEMTEIAELLNYDREVVRVWFCNKRQALK [K35L] are within error of each other in abundance fitness: -0.047 ± 0.091 for the first, -0.01 ± 0.1 for the second.

KRRTSFMPQALEILNAHFEKNTHPSGQEMTEIAEKLNYDREVVRVWFCNKRQALK [T7M] and KRRTSFRPQALEILNAHFEKNTHPSGQEMTEIAEKLNYDREVVRVWFCNKRQALK [T7R] are within error of each other in abundance fitness: -0.395 ± 0.14 for the first, -0.321 ± 0.087 for the second.

Compared with KRRTSFTPQALEILNAHFEKNTHPSGQEMTEIAEKLNYDREVVRVVFCNKRQALK [W46V], KRRTSFTPQALEILNAHFEKNTHPSGQEMTEIAEKLNYDREVVRVRFCNKRQALK [W46R] is higher in abundance fitness: -1.02 ± 0.13 for the first, -0.753 ± 0.1 for the second.

First: KRRTSFTPQALEILNAHFEKNTHPSGQEMTEIACKLNYDREVVRVWFCNKRQALK [E34C]
Second: KRRTSFTPQALEILNAHFEKNTHPSGQEMTEIANKLNYDREVVRVWFCNKRQALK [E34N]
The abundance fitness of the first is higher: 0.127 ± 0.27 for the first, -0.531 ± 0.3 for the second.

Going from KRRTSFTPQALEILNAHFEKNTHPSGQEMTEIAEKLNYDREVVRVWFCNKRFALK [Q52F] to KRRTSFTPQALPILNAHFEKNTHPSGQEMTEIAEKLNYDREVVRVWFCNKRQALK [E12P], the abundance fitness falls from -0.171 ± 0.13 to -0.724 ± 0.18.

KRRTSFTPQALQILNAHFEKNTHPSGQEMTEIAEKLNYDREVVRVWFCNKRQALK [E12Q] and KRRTSFTPQALEILNAHFEKNTHPSIQEMTEIAEKLNYDREVVRVWFCNKRQALK [G26I] are within error of each other in abundance fitness: -0.298 ± 0.28 for the first, -0.02 ± 0.18 for the second.

First: KRRTSFTPQALEILNAHFEKNTHPSWQEMTEIAEKLNYDREVVRVWFCNKRQALK [G26W]
Second: KRRTSFTPQALEILNAHFEKNTHPSGQEMTEIAEKLNYDREVVRVWFCNKRQCLK [A53C]
The abundance fitness of the first is higher: 0.119 ± 0.1 for the first, -0.215 ± 0.12 for the second.

KRRTSFTPQALEILNAHFEKNTHPSGQEMTEIAEKLNYDREVVRVWFCNKRQYLK [A53Y] and KRRTSFTPQALEILNAHFEKNTHPHGQEMTEIAEKLNYDREVVRVWFCNKRQALK [S25H] are within error of each other in abundance fitness: -0.018 ± 0.21 for the first, 0.073 ± 0.26 for the second.

Compared with KRRTSFTPQALEILNAHFEKNTHPWGQEMTEIAEKLNYDREVVRVWFCNKRQALK [S25W], KRRTSFTPQALEILNAHFEKNTHPRGQEMTEIAEKLNYDREVVRVWFCNKRQALK [S25R] is higher in abundance fitness: -0.92 ± 0.21 for the first, -0.125 ± 0.092 for the second.
